This note sets out measurements from PMC4232046, “The Janus transcription factor HapX controls fungal adaptation to both iron starvation and iron excess”.

The target in the data set is HapX(24-158) (Aspergillus fumigatus, UniProt Q4WER3 24-158). The experiment in a line: SPR; HapX alone, no CBC; SPR Biacore T200, 25 C; 10 mM phosphate pH 7.4, 2.7 mM KCl, 137 mM NaCl, 1 mM DTT, 0.005% surfactant P20, 10 ug/ml poly(dI-dC); biotin-DNA on streptavidin CM3 chip. The following applies: protein: recombinant; tags: MBP fusion cleaved with TEV; extended N-terminus with TEV site; chain copies: 2; label: 5' biotin on strand 1; blunt.
Chain of HapX(24-158) (Q4WER3 24-158): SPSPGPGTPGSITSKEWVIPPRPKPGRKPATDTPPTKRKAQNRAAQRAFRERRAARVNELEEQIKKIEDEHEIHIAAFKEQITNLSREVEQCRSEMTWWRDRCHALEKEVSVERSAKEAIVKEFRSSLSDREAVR

B1: cccAp-369-37 (dsDNA)
DNA 1: AAATCCACCAATCAACGCCTCCGTGATTGTCAGCAAT
DNA 2: ATTGCTGACAATCACGGAGGCGTTGATTGGTGGATTT
As to B1, the Kd (usually a measure of binding affinity in units of concentration) was found to be 171 nM.
